Measured values: paper PMC6030200

Assays:
[1] = molecular target: recombinant human integrin α6β1 (human) (UniProt P23229); test: SPR; Biacore T200; integrin α6β4 or α6β1 immobilised by EDC/NHS coupling on CM5 chips (about 16000 RU); seven 2-fold dilutions of PB injected 120 s at 30 µl/minute, 120 s dissociation; 10 mM HEPES, 150 mM NaCl, 1 mM CaCl2, 1 mM MgCl2, 0.05% P20, pH 7.4; 25 °C
[2] = molecular target: recombinant human integrin α6β4 (human) (UniProt P23229); test: as above
[3] = molecular target: HAdV-41 penton base protein, recombinant, soluble (human adenovirus type 41 (HAdV-41)); test: gas-phase electrophoretic mobility macromolecular analysis (GEMMA)
[4] = molecular target: HAdV-41 penton base protein, recombinant, soluble (human adenovirus type 41 (HAdV-41)); test: negative-stain electron microscopy

Chain of recombinant human integrin α6β4 (human) (P23229 24-1130, chain 1 of 2): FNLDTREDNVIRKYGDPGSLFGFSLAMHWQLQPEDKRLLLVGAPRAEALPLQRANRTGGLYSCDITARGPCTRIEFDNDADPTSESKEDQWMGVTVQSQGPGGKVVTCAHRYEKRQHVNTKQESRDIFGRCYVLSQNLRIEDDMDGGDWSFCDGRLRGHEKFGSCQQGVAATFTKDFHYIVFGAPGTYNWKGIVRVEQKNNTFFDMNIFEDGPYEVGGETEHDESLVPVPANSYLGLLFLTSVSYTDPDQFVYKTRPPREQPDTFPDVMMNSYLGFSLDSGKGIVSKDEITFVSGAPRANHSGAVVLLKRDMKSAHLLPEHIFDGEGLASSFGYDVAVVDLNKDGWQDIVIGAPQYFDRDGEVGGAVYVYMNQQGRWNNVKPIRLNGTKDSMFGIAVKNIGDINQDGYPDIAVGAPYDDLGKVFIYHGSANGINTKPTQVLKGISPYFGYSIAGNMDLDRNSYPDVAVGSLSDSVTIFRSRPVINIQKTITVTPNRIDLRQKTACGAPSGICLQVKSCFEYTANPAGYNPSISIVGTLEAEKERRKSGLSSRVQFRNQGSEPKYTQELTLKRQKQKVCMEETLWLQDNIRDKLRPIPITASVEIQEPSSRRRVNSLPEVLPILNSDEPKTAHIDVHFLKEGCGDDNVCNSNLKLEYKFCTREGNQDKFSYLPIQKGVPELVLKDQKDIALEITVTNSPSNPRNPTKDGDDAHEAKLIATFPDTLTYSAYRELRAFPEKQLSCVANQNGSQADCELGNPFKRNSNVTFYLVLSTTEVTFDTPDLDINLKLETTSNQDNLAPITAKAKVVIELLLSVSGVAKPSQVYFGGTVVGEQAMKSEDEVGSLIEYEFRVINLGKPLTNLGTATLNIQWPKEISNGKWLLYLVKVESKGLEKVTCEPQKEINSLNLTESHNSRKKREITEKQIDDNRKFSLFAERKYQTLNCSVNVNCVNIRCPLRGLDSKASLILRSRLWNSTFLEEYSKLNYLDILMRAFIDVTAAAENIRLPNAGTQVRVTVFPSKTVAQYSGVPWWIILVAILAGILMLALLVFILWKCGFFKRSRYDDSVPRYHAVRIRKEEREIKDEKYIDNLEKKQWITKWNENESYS
Chain of recombinant human integrin α6β4 (human) (P16144 28-710, chain 2 of 2, further chain): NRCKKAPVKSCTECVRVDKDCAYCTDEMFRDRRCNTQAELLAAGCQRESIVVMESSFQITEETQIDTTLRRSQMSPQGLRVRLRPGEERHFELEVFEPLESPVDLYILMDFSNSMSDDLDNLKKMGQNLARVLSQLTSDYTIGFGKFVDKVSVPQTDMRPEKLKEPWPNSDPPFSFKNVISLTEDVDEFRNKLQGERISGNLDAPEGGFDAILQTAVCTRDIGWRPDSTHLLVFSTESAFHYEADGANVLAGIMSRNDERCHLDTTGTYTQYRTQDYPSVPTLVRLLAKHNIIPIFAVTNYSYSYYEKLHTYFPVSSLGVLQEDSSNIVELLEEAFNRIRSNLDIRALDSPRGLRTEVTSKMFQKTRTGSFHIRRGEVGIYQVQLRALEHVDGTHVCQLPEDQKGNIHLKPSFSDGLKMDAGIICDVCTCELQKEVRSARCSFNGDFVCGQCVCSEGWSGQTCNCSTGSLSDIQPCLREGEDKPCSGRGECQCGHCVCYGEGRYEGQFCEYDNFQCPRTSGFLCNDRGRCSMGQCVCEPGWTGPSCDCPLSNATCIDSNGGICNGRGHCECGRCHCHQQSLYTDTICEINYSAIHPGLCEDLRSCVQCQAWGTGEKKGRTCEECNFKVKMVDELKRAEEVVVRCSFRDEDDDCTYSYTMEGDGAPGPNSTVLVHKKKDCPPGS

Which fold lower affinity than to α6β4 [1] does the source give for “HAdV-40 penton base protein, recombinant, soluble (natural protein)” here?
Its fold lower affinity than to α6β4 is 10 fold.

And the koff [1]?
Its koff is 0.1 s⁻¹.

For “HAdV-5 penton base protein, recombinant, soluble (from UniProt P12538 1-571) (natural protein)”, which fold lower affinity than 40PB and 41PB [1] is on record?
Its fold lower affinity than 40PB and 41PB is 3 fold.

What about the fold lower affinity than 40PB and 41PB [2] of the same substance?
The fold lower affinity than 40PB and 41PB was 3 fold.

For “HAdV-41 penton base protein, recombinant, soluble (natural protein)”, which stoichiometry N [3] is on record?
The stoichiometry N was 5.

What about the fold lower affinity than to α6β4 [1] of the same substance?
Its fold lower affinity than to α6β4 is 10 fold.

And the kon [1]?
The kon was 10000 M⁻¹ s⁻¹.

And the stoichiometry N [4]?
Its stoichiometry N is 5.
